Source: patent KR20200067522A (dated 2020)

Assays:
CRM 197 의 A 단편(21kDa) = molecular target: T1, CRM 197 의 A 단편(21kDa) (Corynebacterium diphtheriae C7 (β197) …, UniProt P00588 33-225); assay: western blot of trypsin/DTT-cleaved CRM197
T1 construct: domain: A 단편(21kDa); Band on a reducing SDS-PAGE / western blot after trypsin digestion

[1] = molecular target: T2, CRM 197 (Cross-reactive material 197) (Corynebacterium diphtheriae C7 (β197) …, UniProt P00588 33-567); assay: BLI (Octet Red), CRM197 in two-fold dilutions of 50 to 3.13 nM
T2 construct: mature; Purified to more than 95% purity from the fermentation supernatant

B1: 단일클론항체 3F9 (인간 IgG로 전환) (antibody, V domains shown)
VH: EVQLVESGGGLVQPGGSLRLSCAASGFTFSDYAMSWVRQAPGKGLEWVSAISSSSGNKYYADSVKGRFTISRDNSKNTLYLQMNSLRAEDTAVYYCAKLGVRETLSWYFDLWGQGTLVTVSS
VL: DIQMTQSPSSLSASVGDRVTITCRASQSISNYLNWYQQKPGKAPKLLIYAASRLQSGVPSRFSGSGSGTDFTLTISSLQPEDFATYYCQQSYSFPWTFGQGTKVEIK
notes: Human IgG made from a Fab of a human synthetic Fab library; kappa light chain is only implied by the anti-human kappa ELISA
B1 was tested, and the binding result (CRM 197 의 A 단편(21kDa)) was “no binding” and the Kd [1] was 4.45 nM.
